Results reported in patent EP4763862A1 (Beijing Tide Pharmaceutical Co., Ltd., dated 2026).

T1: mouse B7-H3 on CHO-mouse B7-H3 cells (mouse, UniProt Q8VE98 29-316)
T1 construct: whole, on cells; also called CHO-S-mouse-B7-H3; murine B7-H3
T1 sequence (looked up): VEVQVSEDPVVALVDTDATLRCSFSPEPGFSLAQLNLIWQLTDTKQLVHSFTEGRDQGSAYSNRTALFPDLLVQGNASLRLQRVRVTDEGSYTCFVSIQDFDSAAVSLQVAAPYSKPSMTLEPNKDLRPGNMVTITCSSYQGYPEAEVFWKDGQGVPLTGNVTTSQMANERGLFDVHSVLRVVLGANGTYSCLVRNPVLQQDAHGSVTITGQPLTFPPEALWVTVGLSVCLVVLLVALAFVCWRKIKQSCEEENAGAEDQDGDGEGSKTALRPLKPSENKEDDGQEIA

T2: B7-H3 on NCI-H446 cells (UniProt Q5ZPR3 29-534)
T2 construct: whole, on cells
T2 sequence (looked up): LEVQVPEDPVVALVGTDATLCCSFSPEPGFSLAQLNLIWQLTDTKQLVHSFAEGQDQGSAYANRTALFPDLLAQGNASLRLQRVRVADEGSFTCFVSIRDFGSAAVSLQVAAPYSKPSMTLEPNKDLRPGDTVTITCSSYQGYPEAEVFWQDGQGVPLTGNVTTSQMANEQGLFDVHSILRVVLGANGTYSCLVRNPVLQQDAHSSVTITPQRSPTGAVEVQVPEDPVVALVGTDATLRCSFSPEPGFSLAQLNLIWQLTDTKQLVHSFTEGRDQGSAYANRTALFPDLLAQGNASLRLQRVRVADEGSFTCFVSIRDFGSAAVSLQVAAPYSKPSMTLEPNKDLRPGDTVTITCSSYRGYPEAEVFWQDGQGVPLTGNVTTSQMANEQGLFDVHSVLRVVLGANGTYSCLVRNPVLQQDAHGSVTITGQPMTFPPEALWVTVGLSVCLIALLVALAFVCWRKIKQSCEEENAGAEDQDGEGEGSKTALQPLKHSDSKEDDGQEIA


Target: T1, mouse B7-H3 on CHO-mouse B7-H3 cells
Assay: flow cytometry on CHO-mouse B7-H3 cells, antibody 10 µg/ml

Row | binding result | Binder
1 | binds | 19-F1-E9-B11 (antibody, human IgG1, kappa, V domains shown, also called CB11) VH: EVQLQQSGPSLVKPSQTLSLTCSVTGGSITSFYWNWIRKFPGNKLEYMGYISSSGSTYYNPSLKSRISITRDTSKNQSYLQLNSVTAEDTATYYCARGGVHYGFGDYWGQGTSVTVSS VL: DIVMTQSAPSVPVTPGESVSISCRSSKSLLHSNGNTYLYWFLQRPGQSPQLLIYRMSNLASGVPDRFSGSGSGTAFTLRISRVEAEDVGVYYCMQHLEYPLTFGAGTKLELKR
2 | binds | 16-D10-E1-E1 (antibody, human IgG1, kappa, V domains shown) VH: EVQLQQSGPELVRPGVSVKISCKGSGYTFTDYAMHWVKQSHAKSLEWIGVINTYSGNTYYSQKFKGKATMTVDKSSSTAYMELARLTSEDSAIYYCARGAGYFPYWYFDVWGAGTTVTVSS VL: DIQMIQSPSYLAASPGETITINCRASKSISKYLAWYQEKPGKTNKLLIYSGSTLQSGIPSRFSGSGSGTDFTLTISSLEPEDFAMYYCQQHYEYPYTFGGGTKLEIKR
3 | binds | 29-A9-G8-F6 (antibody, human IgG1, kappa, V domains shown) VH: EVQLQQSGPELVRPGVSVKISCKGSGYTFTDYSMHWVKQSHAKSLEWIGVINTSSGNTYYNLKFKGKATMTVDKSSSTAYMELARLTSEDSAIYYCSKYYGSSFHWYFDVWGAGTTVTVSS VL: DIVMTQSPVIMSASPGEKVTMTCSASSSVSYMHWYQQKSSTSPKLWIYDTSKLASGVPGRFSGTGSGKSHSLTISSMEAEDVATYYCFQGSGYPLTFGSGTKLEIKR
4 | binds | 28-B5-B6-C6 (antibody, human IgG1, kappa, V domains shown) VH: EVKLQESGPGLVKPSQSLSLTCTVTGYSITSDYAWNWIRQFPGNILEWMGYISYSGSASYNPSLQSRISVTRDTSKNQFFLQLNSVTTEDTATYYCVRSLGRRWYFGFWGAGTTVTVSS VL: not shown
5 | binds | 9-A2-G3-H11 (antibody, human IgG1, kappa, V domains shown) VH: EVQLQQSGPELVRPGESVKISCKGSGYTFTDYAIHWVKQSHAKSLEWIGVISTYYDNTYYNQKFKGRATMTVDKSSSTAYMELARLTSEDSAIYYCARGYGSSFNWYFDVWGAGTTVTVSS VL: DIVMTQSPSSLAVSAGEKVTMSCKSSQSLLNSRTRKNYLAWYQQKPGQSPKLLIYWASTRESGVPDRFTGSGSGTDFTLTITSVQAEDLAVYYCKQSYNLYTFGGGTKLEIKR
6 | binds | 9-F1-D9-F10 (antibody, human IgG1, kappa, V domains shown) VH: EVQLVESGGGLVQPGGSLRVSCATSGFTFSDYYMSWVRQPPGKALEWLGFIRNKINGYTTEYSASVKGRFTISRDNSQSILYLQMNTLRAEDSATYYCTRDSSQRPFAYWGQGTLVTVSA VL: DIVMTQSPSSLSVSAGEKVTMTCKSSQSLLNSRSQKNFLAWYQQKPGQPPKLLIYGASTRESGVPDRFTGSGSGTDFTLTISNVQAEDLAVYYCQNDLTYPLTFGAGTKLELKR
7 | binds | 48-B4-F4-E4 (antibody, human IgG1, kappa, also called CE4) heavy: not shown light: DVLMTQTPLSLPVSLGDQVSISCRASQSLANSYGKTYLSWYLHKPGQSPQLLIYGISNRFSGVPDRFSGSGSGTDFTLKISTIKPEDLGMYYCLHGTHQPLTFGAGTKLELKRTVAAPSVFIFPPSDEQLKSGTASVVCLLNNFYPREAKVQWKVDNALQSGNSQESVTEQDSKDSTYSLSSTLTLSKADYEKHKVYACEVTHQGLSSPVTKSFNRGEC

Target: T2, B7-H3 on NCI-H446 cells
Assay: flow cytometry on NCI-H446 cells, goat anti-human Fc secondary

Row | Binder | EC50
8 | 28-B1-E8-C11 (antibody, human IgG1, kappa, V domains shown, parent of the cAb2 humanized antibodies; also called CC11) VH: EVKLVESGAVLVKPGASVKISCKASGYTLSDFNMDWVKQSQGKSLEWVGDINPNYDTITYNQKFRGKATLTVDRSSNTAYMELRSLTSEDSAVYYCARGELGRYFYVWGAGTTVTVSS VL: DIQLTQPPASLSASVGETVTITCRASENVYSYLAWYRQKQGRSPQLLVYNAKTLPEGVPSRFSGSGSGTQFSLKINSLQTEDLGDYYCQHHYGTPWTFGGGTKLEIKR | 4.45 nM
9 | cAb2-z0-p9 (antibody, human IgG1, kappa, V domains shown, Humanized from 28-B1-E8-C11; Human IgG1 / kappa) VH: EVKLVESGAVLVKPGASVKISCKASGYTLSDFNMDWVKQSQGKSLEWVGDINPNYDTITYNQKFRGKATLTVDRSSNTAYMELRSLTSEDSAVYYCARGELGRYFYVWGAGTTVTVSS VL: DIQLTQPPSSLSASVGDRVTITCRASENVYSYLAWYQQKPGRSPQLLVYNAKTLQEGVPSRFSGSGSGTQFTLTISSLQPEDVADYYCQHHYGTPWTFGGGTKVEIKR | 1.15 nM
10 | cAb2-z2-p6 (antibody, human IgG1, kappa, V domains shown, Humanized from 28-B1-E8-C11; Human IgG1 / kappa) VH: QVQLVESGAVVKKPGASVKVSCKASGYTLSDFNMDWVRQAPGKSLEWMGDINPNYDTITYNQKFRGRVTLTVDRSINTAYMELSRLRSDDTAVYYCARGELGRYFYVWGAGTMVTVSS VL: DIQLTQPPSSLSASVGDRVTITCRASENVYSYLAWYQQKPGRSPQLLVYNAKTLQEGVPSRFSGSGSGTQFTLTISSLQPEDFADYYCQHHYGTPWTFGGGTKVEIKR | 1.36 nM

More lines, now with the values ahead:

Row | EC50 | Binder
11 | 2.22 nM | cAb2-z1-p9 (antibody, human IgG1, kappa, V domains shown, Humanized from 28-B1-E8-C11; Human IgG1 / kappa; also called cAb2-zl-p9) VH: EVKLVESGAVLVKPGASVKISCKASGYTLSDFNMDWVKQSQGKSLEWVGDINPNYDTITYNQKFRGKATLTVDRSSNTAYMELRSLTSEDSAVYYCARGELGRYFYVWGAGTTVTVSS VL: DIQLTQPPSSLSASVGDRVTITCRASENVYSYLAWYQQKPGRSPQLLVYNAKTLPEGVPSRFSGSGSGTQFTLTISSLQPEDFADYYCSHHYGTPWTFGGGTKVEIKR
12 | 1.06 nM | cAb2-z3-p6 (antibody, human IgG1, kappa, V domains shown, Humanized from 28-B1-E8-C11; Human IgG1 / kappa) VH: QVQLVESGAVVKKPGASVKVSCKASGYTLSDFNMDWVRQAPGKSLEWMGDINPNYDTITYNQKFRGRVTLTVDRSINTAYMELSRLRSDDTAVYYCARGELGRYFYVWGAGTMVTVSS VL: DIQLTQPPSFLSASVGDRVTITCRASENVYSYLAWYQQKPGRSPQLLVYNAKTLQEGVPSRFSGSGSGTEFTLTISSLQPEDFADYYCQHHYGTPWTFGGGTKVEIKR
13 | 3.92 nM | cAb2-z5-p6 (antibody, human IgG1, kappa, V domains shown, Humanized from 28-B1-E8-C11; Human IgG1 / kappa) VH: QVQLVESGAVVKKPGASVKVSCKASGYTLSDFNMDWVRQAPGKSLEWMGDINPNYDTITYNQKFRGRVTLTVDRSINTAYMELSRLRSDDTAVYYCARGELGRYFYVWGAGTMVTVSS VL: DIQLTQPPSSLSASVGDRVTITCRASENVYSYLAWYQQKPGRSPQLLVYNAKTLPEGVPSRFSGSGSGTQFTLTISSLQPEDFADYYCSHHYGTPWTFGGGTKVEIKR
14 | 0.552 nM | cAb2-z4-p6 (antibody, human IgG1, kappa, V domains shown, Humanized from 28-B1-E8-C11; Human IgG1 / kappa) VH: QVQLVESGAVVKKPGASVKVSCKASGYTLSDFNMDWVRQAPGKSLEWMGDINPNYDTITYNQKFRGRVTLTVDRSINTAYMELSRLRSDDTAVYYCARGELGRYFYVWGAGTMVTVSS VL: DIQLTQPPSSLSASVGDRVTITCRASENVYSYLAWYQQKPGRSPQLLVYNAKTLQEGVPSRFSGSGSGTQFTLTISSLQPEDVADYYCQHHYGTPWTFGGGTKVEIKR
15 | 3.45 nM | cAb1-uIgG1K (antibody, Parental chimeric antibody of the cAb1 series; also called cAb1-ulgG1K) heavy: not shown light: DVLMTQTPLSLPVSLGDQVSISCRASQSLANSYGKTYLSWYLHKPGQSPQLLIYGISNRFSGVPDRFSGSGSGTDFTLKISTIKPEDLGMYYCLHGTHQPLTFGAGTKLELKRTVAAPSVFIFPPSDEQLKSGTASVVCLLNNFYPREAKVQWKVDNALQSGNSQESVTEQDSKDSTYSLSSTLTLSKADYEKHKVYACEVTHQGLSSPVTKSFNRGEC

Target: T3, B7-H3 Cyno-His (cynomolgus monkey)
T3 construct: also called cynomolgus monkey B7-H3
Assay: SPR, Biacore 8K, antibody captured by anti-human IgG Fc on CM5, B7-H3 Cyno-His as analyte, 1:1 model

Row | Kd | koff | kon | Binder
16 | 3.35 nM | 5.47e-05 s⁻¹ | 16300 M⁻¹ s⁻¹ | cAb1-uIgG1K (antibody, Parental chimeric antibody of the cAb1 series; also called cAb1-ulgG1K) heavy: not shown light: DVLMTQTPLSLPVSLGDQVSISCRASQSLANSYGKTYLSWYLHKPGQSPQLLIYGISNRFSGVPDRFSGSGSGTDFTLKISTIKPEDLGMYYCLHGTHQPLTFGAGTKLELKRTVAAPSVFIFPPSDEQLKSGTASVVCLLNNFYPREAKVQWKVDNALQSGNSQESVTEQDSKDSTYSLSSTLTLSKADYEKHKVYACEVTHQGLSSPVTKSFNRGEC
